Data from patent US20220056125A1 (CEPHALON, published 2022).
Residue numbers refer to the chain shown, from its start. Several values for one entry are separate records, joined by “and”; a condition that tells them apart may be missing. Equal values may be shown once.

T1: human PAR-2 (human, UniProt P55085 26-397)
T1 sequence: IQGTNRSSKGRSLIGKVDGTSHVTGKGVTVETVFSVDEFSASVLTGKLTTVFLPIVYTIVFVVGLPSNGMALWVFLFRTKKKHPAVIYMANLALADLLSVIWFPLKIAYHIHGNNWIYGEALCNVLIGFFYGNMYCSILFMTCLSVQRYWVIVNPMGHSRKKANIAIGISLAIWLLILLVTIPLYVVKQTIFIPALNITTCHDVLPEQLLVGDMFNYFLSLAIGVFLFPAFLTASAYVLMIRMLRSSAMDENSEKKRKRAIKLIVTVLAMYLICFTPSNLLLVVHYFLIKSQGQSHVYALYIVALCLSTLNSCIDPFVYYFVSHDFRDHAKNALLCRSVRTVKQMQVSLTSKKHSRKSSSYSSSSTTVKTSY

B1: P24E915 (antibody, human IgG4 S228P, kappa, V domains shown)
VH: QVQLVQSGAEVKKPGSSVKVSCKASGFSLSSYAISWVRQAPGQGLEWMGVIWGNGNTYYAQKFQGRVTITADESTSTAYMELSSLRSEDTAVYYCARWKGYKDYPFDYWGQGTLVTVSS
VL: EIVLTQSPATLSLSPGERATLSCKASQNVYKWLDWYQQKPGQAPRLLIYNAYSLATGIPARFSGSGSGRDFTLTISSLEPEDFAVYYCQQHNSGWTFGGGTKVEIKR
B2: P24E916 (antibody, human IgG4 S228P, kappa, V domains shown)
VH: B1 VH
VL: B1 VL with K24R, L54R
B3: P24E917 (antibody, human IgG4 S228P, kappa, V domains shown)
VH: B1 VH
VL: B1 VL with N92G
B4: P24E918 (antibody, human IgG4 S228P, kappa, V domains shown)
VH: B1 VH with K99R, Y101F
VL: B1 VL with K24R, V29I
B5: P24E919 (antibody, human IgG4 S228P, kappa, V domains shown)
VH: B1 VH with K99R, Y101F
VL: B1 VL
B6: P24E920 (antibody, human IgG4 S228P, kappa, V domains shown)
VH: B1 VH with K99R, Y101F
VL: B1 VL with K24R, L54R
B7: P24E921 (antibody, human IgG4 S228P, kappa, V domains shown)
VH: B1 VH with K99R, Y101F
VL: B1 VL with N92G
B8: P24E922 (antibody, human IgG4 S228P, kappa, V domains shown)
VH: B1 VH with K99R, Y101W
VL: B1 VL with K24R, V29I
B9: P24E923 (antibody, human IgG4 S228P, kappa, V domains shown)
VH: B1 VH with K99R, Y101W
VL: B1 VL
B10: P24E924 (antibody, human IgG4 S228P, kappa, V domains shown)
VH: B1 VH with K99R, Y101W
VL: B1 VL with K24R, L54R
B11: P24E930 (antibody, human IgG4 S228P, kappa, V domains shown)
VH: B1 VH with T57V
VL: B1 VL with K24R, L54R, N92G
B12: P24E931 (antibody, human IgG4 S228P, kappa, V domains shown)
VH: B1 VH with T57V
VL: B1 VL with N92G
B13: P24E932 (antibody, human IgG4 S228P, kappa, V domains shown)
VH: B1 VH with T57V
VL: B1 VL with K24R, V29I
B14: P24E933 (antibody, human IgG4 S228P, kappa, V domains shown)
VH: B1 VH
VL: B1 VL with K24R, L54R, N92G
B15: P24E934 (antibody, human IgG4 S228P, kappa, V domains shown)
VH: B1 VH with T57V, Y104H
VL: B1 VL with K24R, L54R, N92H
B16: P24E935 (antibody, human IgG4 S228P, kappa, V domains shown)
VH: B1 VH with T57V, Y104H
VL: B1 VL with K24R, L54R, N92H, S93H
B17: P24E936 (antibody, human IgG4 S228P, kappa, V domains shown)
VH: B1 VH with T57V, Y104H
VL: B1 VL with K24R, L54R, N92G, S93H
B18: P24E951 (antibody, human IgG4 S228P, kappa, V domains shown)
VH: B1 VH with G55Q, T57V
VL: B1 VL with K24R, L54R, N92G
B19: P24E953 (antibody, human IgG4 S228P, kappa, V domains shown)
VH: B1 VH with G55Q, T57V
VL: B1 VL with K24R, N50D, L54R, N92G
B20: P24E971 (antibody, human IgG4 S228P, kappa, V domains shown)
VH: B1 VH with T57V
VL: B1 VL with K24R, L54R, N92H
B21: P24E972 (antibody, human IgG4 S228P, kappa, V domains shown)
VH: B1 VH with T57V
VL: B1 VL with K24R, L54R, N92H, S93H
B22: P24E973 (antibody, human IgG4 S228P, kappa, V domains shown)
VH: B1 VH with T57V
VL: B1 VL with K24R, L54R, N92G, S93H
B23: P24E975 (antibody, human IgG4 S228P, kappa, V domains shown)
VH: B1 VH with G55Q, T57V
VL: B1 VL with K24R, L54R, N92H, S93H
B24: P24E977 (antibody, human IgG4 S228P, kappa, V domains shown)
VH: B1 VH with G55Q, T57V
VL: B1 VL with K24R, N50D, L54R, N92H
B25: P24E978 (antibody, human IgG4 S228P, kappa, V domains shown)
VH: B1 VH with G55Q, T57V
VL: B1 VL with K24R, N50D, L54R, N92H, S93H
B26: P24E9 (antibody, human IgG4 S228P, kappa, V domains shown)
VH: B1 VH with A33G, I34V, S35I, A60N, K99R
VL: B1 VL with V29I, W32Y, A51T, Y52N, A55H, Q89L
B27: P24E22 (antibody, human IgG4 S228P, kappa, V domains shown)
VH: B1 VH with S30N, A33G, I34V, S35I, K99R
VL: B1 VL with V29I, W32Y, A51T, Y52N, A55H, Q89L
B28: P24E40 (antibody, human IgG4 S228P, kappa, V domains shown)
VH: B1 VH with S30N, A33G, I34V, S35I, A60N, K99R
VL: B1 VL with V29I, W32Y, A51T, Y52N, Q89L
B29: P24E41 (antibody, human IgG4 S228P, kappa, V domains shown)
VH: B1 VH with S30N, A33G, I34V, S35I, A60N, K99R
VL: B1 VL with V29I, W32Y, N50D, Y52S, S53N, L54R, Q89L
B30: P24E60 (antibody, human IgG4 S228P, kappa, V domains shown)
VH: B1 VH with S30N, A33G, I34V, S35I, A60N, K99R
VL: B1 VL with V29I, A51T, Y52N, A55H, Q89L
B31: P24E61 (antibody, human IgG4 S228P, kappa, V domains shown)
VH: B1 VH with S30N, A33G, I34V, S35I, A60N, K99R
VL: B1 VL with V29I, W32F, A51T, Y52N, A55H, Q89L

The binders below were run against T1, human PAR-2 (assay: cell-based or functional assay).

Binder	PAR-2 β-arrestin cell based assay IC50, 2 µM SLIGKV	PAR-2 β-arrestin cell based assay IC50 (SLIGKV mark missing)	PAR-2 β-arrestin cell based assay IC50, 1 µM SLIGKV
B1	1.16 nM	–	–
B2	1.1 nM	–	–
B3	0.93 nM	–	–
B4	1.18 nM	–	–
B5	1.44 nM	–	–
B6	1.32 nM	–	–
B7	1.9 nM	–	–
B8	1.01 nM	–	–
B9	0.99 nM	–	–
B10	0.79 nM	–	–
B11	1.4 nM	1.7 nM	–
B12	2 nM	–	–
B13	1.4 nM	–	–
B14	1.4 nM	–	–
B15	1.5 nM	–	–
B16	1.5 nM	–	–

Binder	PAR-2 β-arrestin cell based assay IC50, 2 µM SLIGKV	PAR-2 β-arrestin cell based assay IC50 (SLIGKV mark missing)	PAR-2 β-arrestin cell based assay IC50, 1 µM SLIGKV
B17	1.8 nM	–	–
B18	2.55 nM and 1.17 nM	–	–
B19	3.64 nM and 1.84 nM	–	–
B20	2.4 nM	–	–
B21	1.52 nM	–	–
B22	2.35 nM	–	–
B23	0.75 nM	–	–
B24	1.73 nM	–	–
B25	0.94 nM	–	–
B26	–	–	11.3 nM
B27	–	–	2.5 nM
B28	–	–	2.47 nM
B29	–	–	26.9 nM
B30	–	–	2.03 nM
B31	–	–	2.56 nM
